The results in this text go back to patent publication US20260022175A1 (Chugai, published 2026).

In test [1] the target is hFcγRIIIaV on hFcγRIIIaV-expressing Jurkat cells (human, UniProt P08637 17-254). Briefly: cell-based or functional assay.
Test [2] concerns the target T1, hFcγRIIaH on hFcγRIIaH-expressing Jurkat cells (human, UniProt P12318 34-317).
T1 sequence (looked up): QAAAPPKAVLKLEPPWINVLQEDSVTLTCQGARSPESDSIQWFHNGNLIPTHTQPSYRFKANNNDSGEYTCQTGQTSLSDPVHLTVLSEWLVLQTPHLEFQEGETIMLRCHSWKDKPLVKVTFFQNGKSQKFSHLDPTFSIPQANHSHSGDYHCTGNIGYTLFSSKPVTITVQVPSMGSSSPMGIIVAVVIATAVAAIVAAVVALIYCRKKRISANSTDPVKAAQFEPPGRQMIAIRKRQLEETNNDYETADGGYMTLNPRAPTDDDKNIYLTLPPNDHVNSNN
Nature of the test: cell-based or functional assay.

In test [3] the target is T2, human FcγRIa extracellular domain (human, UniProt P12314 16-292).
T2 construct: extracellular domain; also called hFcγR Ia; hFcγRIa
Briefly: SPR Biacore 8K+; KD of G1d divided by KD of this antibody.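 Further: antibodies captured on an anti-Fab-kappa streptavidin chip, soluble FcγR ectodomains flowed over, KD by steady-state fit for FcγRIIb and Langmuir kinetic model for the other receptors.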

Test [4] concerns the target T3, human FcγRIIa H extracellular domain (human, UniProt P12318 34-217).
T3 construct: extracellular domain; also called hFcγR IIa H
T3 sequence (looked up): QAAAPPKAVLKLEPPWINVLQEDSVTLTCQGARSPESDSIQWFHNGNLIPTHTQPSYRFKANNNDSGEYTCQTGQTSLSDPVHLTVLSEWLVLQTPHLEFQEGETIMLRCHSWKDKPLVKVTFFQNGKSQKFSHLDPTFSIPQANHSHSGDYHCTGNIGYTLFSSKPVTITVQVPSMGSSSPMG
Described as above.

For test [5], the target named is T4, human FcγRIIa R extracellular domain (human, UniProt P12318 34-217).
T4 construct: extracellular domain; also called hFcγR IIa R
T4 sequence (looked up): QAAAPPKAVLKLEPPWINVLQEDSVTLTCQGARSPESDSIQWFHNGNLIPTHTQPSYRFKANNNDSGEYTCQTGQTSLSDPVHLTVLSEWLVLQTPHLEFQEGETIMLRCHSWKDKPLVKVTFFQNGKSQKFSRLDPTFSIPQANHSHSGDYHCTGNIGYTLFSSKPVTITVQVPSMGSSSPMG
Described as above.

For test [6], the target named is T5, human FcγRIIb extracellular domain (human, UniProt P31994 43-217).
T5 construct: extracellular domain; also called hFcγR IIb
T5 sequence (looked up): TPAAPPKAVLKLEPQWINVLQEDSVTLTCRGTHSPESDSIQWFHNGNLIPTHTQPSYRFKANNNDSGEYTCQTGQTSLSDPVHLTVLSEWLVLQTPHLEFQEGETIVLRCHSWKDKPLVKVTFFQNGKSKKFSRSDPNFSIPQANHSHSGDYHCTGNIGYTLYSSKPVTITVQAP
The description is as above.

Test [7] concerns the target T6, human FcγRIIIa F extracellular domain (human, UniProt P08637 17-208).
T6 construct: extracellular domain; also called hFcγR IIIa F
Described as above.

In test [8] the target is T7, human FcγRIIIa V extracellular domain (human, UniProt P08637 17-208).
T7 construct: extracellular domain; also called hFcγR IIIa V
Described as above.

Test [9] deals with T3, human FcγRIIa H extracellular domain. Nature of the test: SPR Biacore 8K+; KD for FcγRIIb divided by KD for this FcγR.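 Further: antibodies captured on an anti-human Fab kappa SA chip with soluble human FcγR ectodomains flowed over, FcγRIIb KD from steady-state fit, other FcγR KD from Langmuir model.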
Test [10] has as its target T4, human FcγRIIa R extracellular domain. Described as above.
Test [11] concerns the target T6, human FcγRIIIa F extracellular domain. The description is as above.
Test [12] deals with T7, human FcγRIIIa V extracellular domain. The test is described as above.
Test [13] deals with T2, human FcγRIa extracellular domain. Briefly: SPR Biacore 8K+, antibody captured, FcγR as analyte, 1:1 Langmuir model.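 Further: antibodies captured on a streptavidin chip through a biotinylated anti-human Fab kappa reagent, with FcγR extracellular domains injected in pH 7.4 phosphate buffer at 25 °C.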
Test [14] deals with T3, human FcγRIIa H extracellular domain. The test is described as above.
Test [15] addresses T4, human FcγRIIa R extracellular domain. The description is as above.
Test [16] has as its target T6, human FcγRIIIa F extracellular domain. Described as above.
Test [17] addresses T7, human FcγRIIIa V extracellular domain. The test is described as above.
Test [18] concerns the target T5, human FcγRIIb extracellular domain. Nature of the test: SPR Biacore 8K+, antibody captured, FcγR as analyte, steady state affinity model.
The target in test [19] is T8, human C1q protein (Calbiochem) (human, UniProt P02745 23-245; P02746 28-253; P02747 29-245).
T8 construct: bought; also called hC1q
Nature of the test: ELISA: antibody coated on the plate at the varied concentration, hC1q 3 µg/mL added, detected with HRP-conjugated anti-hC1q antibody, O.D (450-690nm).
Procedure: The antigen used was a human C1q protein (hC1q).
First, a 96-well maxisorp plate (Thermo fisher) was coated at 4° C. overnight with 50 μL of solutions containing each antibody prepared at 30, 10, 3, 1, 0.3, 0.1, and 0.03 μg/mL in PBS. Each well of the plate was washed with Wash buffer to remove the antibody not bound to the plate, and then the wells were blocked with 200 μL of Blocking/dilution Buffer at room temperature for 2 hours or longer. After the Blocking/dilution Buffer was removed from each well, hC1q (Calbiochem) prepared such that the final concentration was 3 μg/mL in Blocking/dilution Buffer was added at 50 μL per well. The plate was then allowed to stand at room temperature for 1 hour to allow hC1q to bind to the antibody within each well. After washing with Wash Buffer, 50 μL of an HRP-conjugated anti-hC1q antibody (AbDSerotec) diluted with Blocking/dilution Buffer was added to each well, and the plate was incubated while standing for 1 hour. After washing with Wash Buffer, TMB single solution (Invitrogen) was added. The color development reaction of the solution in each well was stopped by addition of Stop Buffer, and then the developed color was measured by absorbance at 450 nm and 690 nm.

T7 sequence (P08637 17-208 F176V limits assumed): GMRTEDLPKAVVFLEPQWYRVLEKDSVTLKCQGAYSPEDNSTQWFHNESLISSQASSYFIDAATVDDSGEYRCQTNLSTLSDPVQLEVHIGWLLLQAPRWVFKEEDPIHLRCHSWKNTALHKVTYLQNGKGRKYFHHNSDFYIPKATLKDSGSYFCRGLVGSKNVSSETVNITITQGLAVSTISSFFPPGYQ
T6 sequence (P08637 17-208): as the sequence (P08637 17-208 F176V limits assumed) above, with V160F counted along it
T2 sequence (P12314 16-292): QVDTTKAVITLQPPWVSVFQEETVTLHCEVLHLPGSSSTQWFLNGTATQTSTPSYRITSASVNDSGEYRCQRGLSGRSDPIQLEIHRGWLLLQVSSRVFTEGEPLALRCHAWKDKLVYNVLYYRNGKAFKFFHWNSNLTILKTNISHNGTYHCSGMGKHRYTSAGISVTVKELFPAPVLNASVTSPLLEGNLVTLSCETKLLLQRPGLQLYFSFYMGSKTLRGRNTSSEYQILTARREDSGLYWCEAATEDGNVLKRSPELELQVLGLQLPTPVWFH
hFcγRIIIaV on hFcγRIIIaV-expressing Jurkat cells, sequence (P08637 17-254, form in doubt): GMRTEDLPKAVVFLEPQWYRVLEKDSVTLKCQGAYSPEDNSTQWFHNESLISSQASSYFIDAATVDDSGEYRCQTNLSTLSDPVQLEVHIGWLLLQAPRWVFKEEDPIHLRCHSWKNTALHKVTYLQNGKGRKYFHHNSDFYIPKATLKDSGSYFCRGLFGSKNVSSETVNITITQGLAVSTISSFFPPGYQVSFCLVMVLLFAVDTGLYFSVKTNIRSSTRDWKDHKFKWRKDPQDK
T8 sequence (P02745 23-245 limits assumed, chain 1 of 3): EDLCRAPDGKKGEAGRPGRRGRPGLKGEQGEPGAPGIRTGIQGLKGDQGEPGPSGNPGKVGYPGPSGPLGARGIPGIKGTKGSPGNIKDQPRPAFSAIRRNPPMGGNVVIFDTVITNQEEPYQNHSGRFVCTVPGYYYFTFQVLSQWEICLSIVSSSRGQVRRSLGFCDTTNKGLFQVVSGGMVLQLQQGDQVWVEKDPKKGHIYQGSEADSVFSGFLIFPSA
T8 sequence (P02746 28-253 limits assumed, chain 2 of 3): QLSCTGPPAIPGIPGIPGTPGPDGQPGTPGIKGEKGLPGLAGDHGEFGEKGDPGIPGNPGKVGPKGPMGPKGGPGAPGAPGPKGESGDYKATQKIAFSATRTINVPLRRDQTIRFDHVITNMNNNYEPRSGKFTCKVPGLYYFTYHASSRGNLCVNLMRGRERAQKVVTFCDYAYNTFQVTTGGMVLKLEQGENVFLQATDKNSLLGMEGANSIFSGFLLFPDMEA
T8 sequence (P02747 29-245 limits assumed, chain 3 of 3): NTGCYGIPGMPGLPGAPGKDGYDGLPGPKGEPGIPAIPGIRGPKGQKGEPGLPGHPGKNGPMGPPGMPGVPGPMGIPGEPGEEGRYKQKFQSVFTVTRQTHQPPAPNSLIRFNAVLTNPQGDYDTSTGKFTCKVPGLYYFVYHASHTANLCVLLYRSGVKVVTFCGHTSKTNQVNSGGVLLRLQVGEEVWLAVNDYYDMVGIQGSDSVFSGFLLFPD

B1: H240-Kn443/L73-k0//H240-Hl408/L73-k0 (antibody, human IgG1, kappa)
heavy 1: QDQLVQSGAEVKKPGASVKVSCKASGFNIKDTYIQWVRQAPGQGLEWMGRIDPLRKQTKYREKFEGRVTITADTSTNTAYMELSSLRSEDTAVYYCVRSGREFDYWGQGTLVTVSSASTKGPSVFPLAPSSKSTSGGTAALGCLVKDYFPEPVTVSWNSGALTSGVHTFPAVLQSSGLYSLSSVVTVPSSSLGTQTYICNVNHKPSNTKVDKKVEPKSCDKTHTCPPCPAPEFQWGPMVFLFPPKPKDTLMISRTPEVTCVVVDVSDEEPEVKFNWYVDGVEVHNAKTKPREEQYNATYRVVSVLTVLHQDWLNGKEYKCKVSNDALPAPIEKTISKAKGQPREPQVCTLPPSRDELTKNQVSLWCLVKGFYPSDIAVEWESNGQPENNYKTTPPVLDSDGSFFLYSKLTVDKSRWQQGNVFSCSVMHEALHNHYTQKSLSLSP
heavy 2: QDQLVQSGAEVKKPGASVKVSCKASGFNIKDTYIQWVRQAPGQGLEWMGRIDPLRKQTKYREKFEGRVTITADTSTNTAYMELSSLRSEDTAVYYCVRSGREFDYWGQGTLVTVSSASTKGPSVFPLAPSSKSTSGGTAALGCLVKDYFPEPVTVSWNSGALTSGVHTFPAVLQSSGLYSLSSVVTVPSSSLGTQTYICNVNHKPSNTKVDKKVEPKSCDKTHTCPPCPAPELLAGPSVFLFPPKPKDTLMISRTPEVTCVVVDVSHEEPEVKFNWYVDGVEVHNAKTKPREEQYNATYRVVSVLTVLHQDWLNGKEYKCKVSNDALPAPIEETISKAKGQPREPQVYTLPPSRCELTKNQVSLSCAVKGFYPSDIAVEWESNGQPENNYKTTPPVLDSDGSFFLVSKLTVDKSRWQQGNVFSCSVMHEALHNHYTQKSLSLSP
light: DIQMTQSPSSLSASVGDRVTITCRASQDIHKYIAWYQQKPGQAPRLLIQYTSTLQPGVPSRFSGSGSGTDYTFTISSLQPEDIATYYCLQYEQLRTFGGGTKVEIKRTVAAPSVFIFPPSDEQLKSGTASVVCLLNNFYPREAKVQWKVDNALQSGNSQESVTEQDSKDSTYSLSSTLTLSKADYEKHKVYACEVTHQGLSSPVTKSFNRGEC
notes: also called EGL-ART3; ART3
Take B1: the “EC50 value (hFcγRIIIaV ADCC Reporter Bioassay, Hepa1-6/hEREG target cells)” value in test [1] was 1.53 ng/mL. The “EC50 value (hFcγRIIaH ADCP Reporter Bioassay, Hepa1-6/hEREG target cells)” value in test [2] came to 15.8 ng/mL. The “Relative value to KD between G1d and hFcgRs” value amounted to 0.5 in test [3]; 32.1 in test [4]; 13.7 in [5]; 1.6 in test [6]; 185 in [7]; 114 in [8]. Further, the “A/I ratio (KD for FcγRIIb divided by KD for each FcγR)” value in test [9] was 181; in test [10], 52.4; in test [11], 396; in [12], 2000. For the same molecule, the Kd in test [13] was 0.172 nM; in [14] it was 35 nM; in [15] it was 121 nM; in [16], 16 nM; in test [17], 3.16 nM; in [18], 6330 nM. Moreover, in [19], the binding result is recorded as “binds”.

B2: H240-Kn461/L73-k0//H240-Hl443/L73-k0 (antibody, human IgG1, kappa)
heavy 1: QDQLVQSGAEVKKPGASVKVSCKASGFNIKDTYIQWVRQAPGQGLEWMGRIDPLRKQTKYREKFEGRVTITADTSTNTAYMELSSLRSEDTAVYYCVRSGREFDYWGQGTLVTVSSASTKGPSVFPLAPSSKSTSGGTAALGCLVKDYFPEPVTVSWNSGALTSGVHTFPAVLQSSGLYSLSSVVTVPSSSLGTQTYICNVNHKPSNTKVDKKVEPKSCDKTHTCPPCPAPEFQWGPMVFLFPPKPKDVLMISRTPEVTCVVVDVSDEEPEVKFNWYVDGVEVHNAKTKPREEQYNATYRVVSVLPVLHQDWLNGKEYKCKVSNDALPAPEEKTISKAKGQPREPQVCTLPPSRDELTKNQVSLWCLVKGFYPSDIAVEWESNGQPENNYKTTPPVLDSDGSFFLYSKLTVDKSRWQQGNVFSCSVMHEALHNHYTQKSLSLSP
heavy 2: QDQLVQSGAEVKKPGASVKVSCKASGFNIKDTYIQWVRQAPGQGLEWMGRIDPLRKQTKYREKFEGRVTITADTSTNTAYMELSSLRSEDTAVYYCVRSGREFDYWGQGTLVTVSSASTKGPSVFPLAPSSKSTSGGTAALGCLVKDYFPEPVTVSWNSGALTSGVHTFPAVLQSSGLYSLSSVVTVPSSSLGTQTYICNVNHKPSNTKVDKKVEPKSCDKTHTCPPCPAPELLAGPSVFLFPPKPKDVLMISRTPEVTCVVVDVSHEEPEVKFNWYVDGVEVHNAKTKPREEQYNATYRVVSVLPVLHQDWLNGKEYKCKVSNDALPAPEEETISKAKGQPREPQVYTLPPSRCELTKNQVSLSCAVKGFYPSDIAVEWESNGQPENNYKTTPPVLDSDGSFFLVSKLTVDKSRWQQGNVFSCSVMHEALHNHYTQKSLSLSP
light: DIQMTQSPSSLSASVGDRVTITCRASQDIHKYIAWYQQKPGQAPRLLIQYTSTLQPGVPSRFSGSGSGTDYTFTISSLQPEDIATYYCLQYEQLRTFGGGTKVEIKRTVAAPSVFIFPPSDEQLKSGTASVVCLLNNFYPREAKVQWKVDNALQSGNSQESVTEQDSKDSTYSLSSTLTLSKADYEKHKVYACEVTHQGLSSPVTKSFNRGEC
notes: also called EGL-ART8; ART8
As for B2, the “EC50 value (hFcγRIIIaV ADCC Reporter Bioassay, Hepa1-6/hEREG target cells)” value in [1] turned out to be 1.07 ng/mL. Further, the “EC50 value (hFcγRIIaH ADCP Reporter Bioassay, Hepa1-6/hEREG target cells)” value in [2] is 17.1 ng/mL. Also, the “Relative value to KD between G1d and hFcgRs” value in test [3] turned out to be 3.2; in test [4] it was 15; in test [5] it was 13.2; in test [6] it was 2.8; in test [7], 1970; in test [8], 695. For the same molecule, the “A/I ratio (KD for FcγRIIb divided by KD for each FcγR)” value in [9] amounted to 47.2; in test [10], 28.1; in test [11], 2350; in [12] it was 6850. Also, the Kd in test [13] worked out at 0.028 nM; in test [14], 74.9 nM; in test [15], 126 nM; in test [16], 1.5 nM; in test [17], 0.51 nM; in test [18] it was 3530 nM. Besides, the binding result in test [19] was “binds”.
